Measurements published in paper PMC6099927.

Target: Plasmodium falciparum lactate dehydrogenase (PfLDH) (Plasmodium falciparum) (UniProt Q27743)
Assay: APTEC plate capture assay
Details: 2x PBS binding buffer (recombinant PfLDH), 1 h, streptavidin plate coated with DNA, PBST (0.1% Tween-20) washes, absorbance 570 nm; blood: 1:1 with PBS 0.5% …

Sequence of Plasmodium falciparum lactate dehydrogenase (PfLDH) (Plasmodium falciparum) (Q27743 whole entry): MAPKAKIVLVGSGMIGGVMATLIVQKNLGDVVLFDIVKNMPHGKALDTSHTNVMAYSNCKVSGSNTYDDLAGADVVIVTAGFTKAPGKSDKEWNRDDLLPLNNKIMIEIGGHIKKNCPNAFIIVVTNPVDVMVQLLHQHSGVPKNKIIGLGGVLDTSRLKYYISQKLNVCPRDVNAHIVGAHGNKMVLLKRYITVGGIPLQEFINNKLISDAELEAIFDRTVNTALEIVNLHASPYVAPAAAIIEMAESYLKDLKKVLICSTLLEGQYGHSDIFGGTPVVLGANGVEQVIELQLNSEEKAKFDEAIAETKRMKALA

Sequence: GCAACAGAGCCCTATTCTGTCTCAGTCCACCGGGTTAGGAAACGCGAGTCAGT / CTGGGCGGTAGAACCATAGTGACCCAGCCGTCTACTTCCCTAACGCCTGCGTGAATAGGGCTCTGTTGC / CTGGGCGGTAGAACCATAGTGACCCAGCCGTCTACTTGATCTCAACTCAGTTACCCGGTGGACTGAGAC / CTGGGCGGTAGAACCATAGTGACCCAGCCGTCTACTTTCATCTGGGGCCTTTACTGACTCGCGTTTCCT / TAAGGCCCCAGATGATAAACCCAGGCCGGCCCT / TCGCTCGACAGAGATACTATTAGTACCAGGCCCGATAGGGCCGGCCTGGGTTT / TCGCAGGCGTTAGGGTTCGGGCCTGGTACTAAT / TACTGAGTTGAGATCTGTATCTCTGTCGAGCGA [prism with three aptamers]
- Kd: 1.38 nM
